In paper PMC9258132, “Multi-omics profiling identifies a deregulated FUS-MAP1B axis in ALS/FTD–associated UBQLN2 mutants”:

What was measured:
[1] = target: MBP-FUS-His6 S439E (UniProt P35637 1-526, S439E); test: EMSA; 5 mM MgCl2, 0.1 mg/ml yeast tRNA; 5 nM RNA, 0-10 uM protein; 20 mM NaPO4 pH 8, 150 mM NaCl, 5% glycerol, 1 mM DTT, 5 mM MgCl2, 0.5 mg/ml BSA, 0.1 mg/ml yeast tRNA, 1 U/ul RNase inhibitor, 20 min RT; 6% native PAGE in 0.5x TBE; settings: protein: recombinant; tags: N-terminal MBP, C-terminal His6; hairpin with 3' single-stranded tail
[2] = target: MBP-FUS-His6 S439A (UniProt P35637 1-526, S439A); test: as above; settings: protein: recombinant; tags: N-terminal MBP, C-terminal His6; hairpin with 3' single-stranded tail
Sequence of MBP-FUS-His6 S439A (P35637 whole entry S439A): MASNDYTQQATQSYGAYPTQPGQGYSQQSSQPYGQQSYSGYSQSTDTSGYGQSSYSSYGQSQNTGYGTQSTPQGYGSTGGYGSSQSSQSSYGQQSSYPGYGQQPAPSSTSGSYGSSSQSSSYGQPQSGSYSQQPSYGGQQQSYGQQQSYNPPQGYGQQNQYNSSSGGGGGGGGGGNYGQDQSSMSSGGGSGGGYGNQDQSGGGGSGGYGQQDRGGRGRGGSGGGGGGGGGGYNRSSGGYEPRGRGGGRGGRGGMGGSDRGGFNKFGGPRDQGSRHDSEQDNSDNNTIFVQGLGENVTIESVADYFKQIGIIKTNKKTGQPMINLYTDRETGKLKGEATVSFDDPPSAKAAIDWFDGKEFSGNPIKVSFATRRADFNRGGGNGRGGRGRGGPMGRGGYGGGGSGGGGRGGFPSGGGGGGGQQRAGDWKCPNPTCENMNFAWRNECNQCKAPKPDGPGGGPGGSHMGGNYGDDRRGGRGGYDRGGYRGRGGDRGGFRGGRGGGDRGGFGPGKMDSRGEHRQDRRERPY

Sequence of MBP-FUS-His6 S439E (P35637 whole entry S439E): as the sequence (P35637 whole entry S439A) above, with A439E counted along it

B1: SON pre-mRNA stem loop with downstream GGU motif (structured_RNA)
RNA: GGAUCUUUAACUACUCAAGAUACUGAACAUGACAUGGUA
binding result [1]: no binding
binding result [2]: binds
